Tests used:
Test in all cases: EMSA; 3 mM MgCl2; 0-50 nM protein, 10 nM DNA; EMSA: 35 mM Tris-Cl pH 7.5, 3 mM MgCl2, 50 mM KCl, 1 mM DTT, 10% glycerol, 30 C, 5 min; curtains: 20 mM Tris-OAc pH 7.5, 50 mM NaCl, 10 mM MgOAc2, 200 ng/ul BSA, 1 mM DTT
Conditions in all cases: protein: recombinant; label: 5'-Atto647N on strand 1; blunt
Rad54 = biological target: T1, Rad54 (Saccharomyces cerevisiae, UniProt P32863 1-898)
T1 sequence: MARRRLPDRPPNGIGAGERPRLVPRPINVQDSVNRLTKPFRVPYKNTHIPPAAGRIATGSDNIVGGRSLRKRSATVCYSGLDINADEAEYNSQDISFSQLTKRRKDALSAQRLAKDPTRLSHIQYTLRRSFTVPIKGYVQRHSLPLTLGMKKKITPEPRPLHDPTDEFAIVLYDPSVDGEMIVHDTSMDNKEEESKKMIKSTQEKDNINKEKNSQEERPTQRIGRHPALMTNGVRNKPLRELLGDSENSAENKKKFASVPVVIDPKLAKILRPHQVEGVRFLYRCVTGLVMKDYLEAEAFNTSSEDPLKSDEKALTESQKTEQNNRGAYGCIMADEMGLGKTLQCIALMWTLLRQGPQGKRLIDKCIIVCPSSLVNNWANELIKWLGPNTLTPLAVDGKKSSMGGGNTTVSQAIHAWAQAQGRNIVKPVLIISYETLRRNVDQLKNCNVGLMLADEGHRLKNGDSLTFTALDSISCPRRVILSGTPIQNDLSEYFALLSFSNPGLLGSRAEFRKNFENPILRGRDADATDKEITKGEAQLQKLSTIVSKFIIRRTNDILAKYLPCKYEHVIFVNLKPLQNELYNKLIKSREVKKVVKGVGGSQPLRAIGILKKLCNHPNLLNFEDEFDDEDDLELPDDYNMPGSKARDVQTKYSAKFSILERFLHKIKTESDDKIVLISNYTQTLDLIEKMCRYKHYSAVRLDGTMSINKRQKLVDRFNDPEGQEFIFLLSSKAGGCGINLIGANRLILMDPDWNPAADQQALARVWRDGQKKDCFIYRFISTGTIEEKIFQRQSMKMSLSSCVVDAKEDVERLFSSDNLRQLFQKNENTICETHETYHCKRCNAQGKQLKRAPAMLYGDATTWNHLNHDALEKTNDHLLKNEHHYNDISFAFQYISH

Rad54 R272Q = biological target: T2, Rad54 R272Q (Saccharomyces cerevisiae, UniProt P32863 1-898, R272Q)
T2 sequence: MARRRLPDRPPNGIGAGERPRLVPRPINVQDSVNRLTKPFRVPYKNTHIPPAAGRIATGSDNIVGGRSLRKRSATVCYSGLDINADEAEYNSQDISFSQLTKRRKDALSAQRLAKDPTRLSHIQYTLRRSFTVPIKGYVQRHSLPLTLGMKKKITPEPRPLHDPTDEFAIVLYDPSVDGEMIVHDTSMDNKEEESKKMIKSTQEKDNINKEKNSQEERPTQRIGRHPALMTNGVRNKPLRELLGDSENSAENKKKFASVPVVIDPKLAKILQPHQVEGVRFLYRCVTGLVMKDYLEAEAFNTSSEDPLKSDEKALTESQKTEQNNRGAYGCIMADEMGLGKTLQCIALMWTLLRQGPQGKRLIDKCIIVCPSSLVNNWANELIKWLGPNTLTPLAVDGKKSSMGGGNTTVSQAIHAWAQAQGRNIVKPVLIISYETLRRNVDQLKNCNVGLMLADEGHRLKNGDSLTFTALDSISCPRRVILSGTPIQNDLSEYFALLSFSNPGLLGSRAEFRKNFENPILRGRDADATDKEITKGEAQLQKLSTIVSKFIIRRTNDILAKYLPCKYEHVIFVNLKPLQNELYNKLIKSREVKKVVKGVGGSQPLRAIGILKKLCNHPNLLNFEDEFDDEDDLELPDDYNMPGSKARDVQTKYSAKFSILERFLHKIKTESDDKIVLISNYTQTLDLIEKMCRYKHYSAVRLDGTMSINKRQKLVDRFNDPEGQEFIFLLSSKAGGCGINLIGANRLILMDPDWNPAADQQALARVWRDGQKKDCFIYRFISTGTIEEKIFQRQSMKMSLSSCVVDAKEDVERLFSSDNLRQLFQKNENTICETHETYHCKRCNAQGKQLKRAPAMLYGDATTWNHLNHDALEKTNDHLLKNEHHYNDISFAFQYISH

Rad54 R272A = biological target: T3, Rad54 R272A (Saccharomyces cerevisiae, UniProt P32863 1-898, R272A)
T3 sequence: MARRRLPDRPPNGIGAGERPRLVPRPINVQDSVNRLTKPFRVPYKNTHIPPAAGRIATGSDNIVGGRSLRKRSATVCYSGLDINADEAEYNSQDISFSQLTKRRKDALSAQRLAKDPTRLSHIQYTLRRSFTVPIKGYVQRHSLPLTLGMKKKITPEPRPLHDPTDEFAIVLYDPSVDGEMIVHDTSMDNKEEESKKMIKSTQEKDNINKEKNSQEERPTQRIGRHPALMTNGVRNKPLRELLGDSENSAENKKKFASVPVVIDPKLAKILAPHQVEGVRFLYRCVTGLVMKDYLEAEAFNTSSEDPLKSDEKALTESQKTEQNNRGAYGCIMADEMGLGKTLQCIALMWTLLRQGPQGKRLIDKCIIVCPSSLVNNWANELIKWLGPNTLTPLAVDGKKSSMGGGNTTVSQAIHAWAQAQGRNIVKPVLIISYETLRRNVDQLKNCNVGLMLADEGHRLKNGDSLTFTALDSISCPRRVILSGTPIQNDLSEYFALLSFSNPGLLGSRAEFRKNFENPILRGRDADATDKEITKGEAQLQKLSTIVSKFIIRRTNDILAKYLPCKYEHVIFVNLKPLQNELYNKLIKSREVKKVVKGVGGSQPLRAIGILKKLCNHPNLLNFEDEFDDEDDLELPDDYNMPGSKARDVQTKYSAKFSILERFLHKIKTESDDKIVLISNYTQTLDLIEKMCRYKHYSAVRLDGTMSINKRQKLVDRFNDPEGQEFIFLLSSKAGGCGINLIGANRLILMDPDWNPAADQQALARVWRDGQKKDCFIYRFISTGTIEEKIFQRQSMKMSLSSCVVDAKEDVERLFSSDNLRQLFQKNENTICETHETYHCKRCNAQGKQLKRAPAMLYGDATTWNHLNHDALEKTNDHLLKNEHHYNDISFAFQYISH

Measured: binding result

B1: 90-mer EMSA dsDNA (dsDNA)
DNA 1: TGTAAAACGACGGCCAGTGAATTCGAGCTCGGTACCCGGGGATCCTCTAGAGTCGACCTGCAGGCATGCAAGCTTGGCGTAATCATGGTC
DNA 2: GACCATGATTACGCCAAGCTTGCATGCCTGCAGGTCGACTCTAGAGGATCCCCGGGTACCGAGCTCGAATTCACTGGCCGTCGTTTTACA
binds: all assays above
